Here are results for one substance from PMC3558487.

In assay [1] the target is Vibrio harveyi chitoporin (VhChiP), recombinant, mature trimer (Vibrio harveyi type strain 650). Nature of the assay: SDS-PAGE of samples unheated or heated at up to 60°C; purified VhChiP (peak P2 of the ion exchange) unheated or heat-treated for 10 min, run on a 10% polyacrylamide gel; trimer to monomers.
The target is the same in assay [2]. In words: single-channel current recording in a planar lipid bilayer (BLM); purified VhChiP added to the cis side of a DPhPC bilayer, 1 M KCl, 20 mM HEPES pH 7.5; closure induced by higher voltage (+200 mV).

Turning to “Vibrio harveyi chitoporin (VhChiP), recombinant, mature trimer (natural protein)”, the stoichiometry N in assay [1] and in assay [2] was 3 throughout.

For orientation: stoichiometry N means the number of molecules, sites or subunits per partner or assembly.
